Results reported in the supplement of paper PMC10567573.
± gives the standard deviation.

Assay: protein stability index of a GFP-peptide fusion (GPS, HEK-293T) (PSI 1-6); higher = more stable
[1] = treatment: DMSO, c terminus: a fixed tail appended
[2] = treatment: MLN4924 1 uM, 8 h, c terminus: a fixed tail appended
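Note: 24-mer peptide tiles fused after GFP, lentivirally expressed, FACS-sorted into six equal bins by GFP/DsRed ratio, decoded by Illumina sequencing, PSI is the read-weighted mean bin number.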

Sequence | protein stability index [1] | protein stability index [2] | protein stability index (treatment: DMSO, c terminus: native) | protein stability index (treatment: MLN4924 1 uM, 8 h, c terminus: native)
TEPSGRVAKKTPTKRSTLIISGVS [C2CD2L] | 3.76 ± 0.27 | 3.92 ± 0.34 | – | –
MLEKMDLKEFDLDALLGIDDLETM [ATF4] | 3.85 ± 0.14 | 3.87 ± 0.26 | – | –
FRQYCGAACTCHVRNPLSACSIM [RNF208] | – | – | 2.09 ± 0.19 | 2.18 ± 0.2
EEKADVLARGPLNQTALHLAAAHG [RIPK4] | 4.5 ± 0.17 | – | – | –
SRRIYRCRNCINLQNEAQKRESFL [IQUB] | 2.17 ± 0.42 | 2.24 ± 0.2 | – | –
CRLDYRRPENRSFYLALYKQMSFL [TCF25] | 2.33 ± 0.6 | 2.28 ± 0.66 | – | –
LREIAFTRQLHEKTSQLSYYYMGF [ATE1] | 2.31 ± 0.35 | 2.34 ± 0.24 | – | –
PDDRLTCSQLLESSYFDSFQEAQI [CDKL4] | 3.91 ± 0.43 | 4.08 ± 0.12 | – | –
LSVTISFRIYKSVIQAVQKSEEGH [RTN3] | 3.26 ± 0.61 | 3 ± 0.42 | – | –
KVEQAKKPSFQSGGRRRPPASSRN [RBMY1A1] | 4.628 ± 0.025 | 4.73 ± 0.084 | – | –
DEEVQRKREMILKRKEEEALKDSL [VDR] | 5.35 ± 0.22 | 5.5 ± 0.19 | – | –
CKLILSLEPDEDPLCMLLLIDHLA [TCF25] | 2.82 ± 0.53 | 2.95 ± 0.79 | – | –
DEGASAGQGPKPEADSQEQGHPQT [GAGE1] | 5.71 ± 0.1 | 5.48 ± 0.37 | – | –
PSSQSSSGGGRDSSSSILRWLPEK [ELOA2] | 4.15 ± 0.12 | 4.25 ± 0.1 | – | –
DFPEEDDPTNWLRCYYYEDTISTI [NCF4] | 3.28 ± 0.25 | 3.2 ± 0.22 | – | –
EERSPSFGEDYYGPSRSRHRRRSR [CLK3] | 5.32 ± 0.2 | 5.46 ± 0.062 | – | –
TITSEVIEKCTTPLSDDHDEKYGV [CRY1] | 5.21 ± 0.12 | 4.99 ± 0.22 | – | –
VRDSDSLAESEFESAAFSQGSRSG [PHTF1] | 5.15 ± 0.26 | 5.13 ± 0.28 | – | –
GDSGERSEGEAMEICSEPVAASPA [ZNF511] | 5.47 ± 0.24 | 5.52 ± 0.26 | – | –
SAAPGHPQDGSYPRQADHDDHECC [KCNA1] | 5.39 ± 0.4 | 5.6 ± 0.1 | – | –
FGQQDWKFLASHFPNRTDQQCQYR [MYBL2] | 2.62 ± 0.36 | 3.08 ± 0.27 | – | –
GPIQLWQFLLELLSDKSCQSFISW [ETS2] | 2.62 ± 0.5 | 2.73 ± 0.6 | – | –
RAVLGGLSQTDPRAGGGGGGDYGL [PPTC7] | 4.01 ± 0.84 | 3.85 ± 1.5 | – | –

Sequence | protein stability index [1] | protein stability index [2] | protein stability index (treatment: DMSO, c terminus: native) | protein stability index (treatment: MLN4924 1 uM, 8 h, c terminus: native)
SDPEISDVDEDEPGGLVGSADVVS [PPFIA4] | 5.54 ± 0.34 | 5.35 ± 0.45 | – | –
TIRGEVMFFKDRFYMRTNPFYPEV [MMP1] | 2.2 ± 0.39 | 2.21 ± 0.12 | – | –
FARHIKKSEGQKIPKVELQISIYG [GULP1] | 2.06 ± 0.41 | 1.9 ± 0.26 | – | –
RYAPLSFRNPMMSKLRNYRKDLAK [VTI1B] | 2.76 ± 0.23 | 2.74 ± 0.18 | – | –
FDPLPPSDTIYSYVRPERLSPISH [TCF25] | 3.07 ± 0.17 | 3.14 ± 0.42 | – | –
PLRADHMVKEPVEDTDPSTLSFNM [EDARADD] | 5.1 ± 0.083 | 4.86 ± 0.46 | – | –
WEPFDWGRLLEALCREEPVVQGPD [FANCE] | 3.001 ± 0.014 | 3.22 ± 0.23 | – | –
LVITDFFGHLINGAIAVFVYASDK [PTGFR] | 3.39 ± 0.23 | 3.56 ± 0.49 | – | –
EDLTPEDDMPIGRNVLELNDVRQS [PTPRD] | 5.13 ± 0.3 | 5.19 ± 0.14 | – | –
VQVENPERFSSAPCLLGSRVFSQG [TRIM35] | 3.09 ± 0.24 | 3.2 ± 0.22 | – | –
PRKTAAPVNALVSHLLVVEPEKLY [ESRRA] | 2.83 ± 0.22 | 2.5 ± 0.18 | – | –
ILGPSSAYTQTQFHNLRNTLDGYG [NFE2L1] | 2.46 ± 0.17 | 2.33 ± 0.25 | – | –
GPLLDSLYWTKWYNNQSLGHGSHS [PKD2L1] | 2.51 ± 0.16 | 2.47 ± 0.38 | – | –
LEGVIDRYQQSKAAALKCQLCEKA [TRIM9] | 3.45 ± 0.32 | 3.78 ± 0.34 | – | –
LVDMDMADYSAALDPAYTTLEFEN [HNF4A] | 4.24 ± 0.19 | 4.35 ± 0.054 | – | –
LSPALDLQAESPPVDPDSQADTVH [DNAAF3] | 5.48 ± 0.41 | 5.46 ± 0.21 | – | –
AGSHQYPGRGVYLLKFDNSYSLWR [ACBD3] | 2.43 ± 0.25 | 2.22 ± 0.29 | – | –
EMSRGEQDLIEDLKLARKAYHDPM [NET1] | 4.5 ± 0.27 | 4.47 ± 0.33 | – | –
WLQKLCCPCCFGRDCLVLNQGYLS [PI4K2A] | 2.4 ± 0.45 | 2 ± 0.24 | – | –
NALTLTFQRAMHDYNQAEMKQRDN [STX11] | 3.54 ± 0.15 | 3.68 ± 0.12 | – | –
NYLVRLSFHNLKFDCSTANKIFLR [ZNF277] | 2.46 ± 0.4 | 2.55 ± 0.25 | – | –
DRSDYFAAWGARVFSFGKHYWELD [TRIM43] | 2.14 ± 0.44 | 2.15 ± 0.57 | – | –
